Measurements: article PMC10397247
Each block holds one binder with its values, some of them ahead of it.

Columns and labels:
P11-AA = target: T1, P11-AA; assay: two-hybrid library CCmax; conditions: mean of both orientations;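 note: natural log of median RNA to DNA barcode read ratio; higher means stronger binding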
T1 chain: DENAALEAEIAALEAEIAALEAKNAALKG

AP4-AA = target: T2, AP4-AA; assay: two-hybrid library CCmax; conditions: mean of both orientations;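 note: natural log of median RNA to DNA barcode read ratio; higher means stronger binding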
T2 chain: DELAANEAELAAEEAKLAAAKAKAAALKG

AP8-AA = target: T3, AP8-AA; assay: two-hybrid library CCmax; conditions: mean of both orientations;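 note: natural log of median RNA to DNA barcode read ratio; higher means stronger binding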
T3 chain: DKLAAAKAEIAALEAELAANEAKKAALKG

P7-AA = target: T4, P7-AA; assay: two-hybrid library CCmax; conditions: mean of both orientations;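 note: natural log of median RNA to DNA barcode read ratio; higher means stronger binding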
T4 chain: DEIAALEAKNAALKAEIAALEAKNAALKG

GCN2_T = assay: two-hybrid library CCmax;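 note: natural log of median RNA to DNA barcode read ratio; higher means stronger binding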
P1-AA = target: T5, P1-AA; assay: two-hybrid library CCmax; conditions: mean of both orientations;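 note: natural log of median RNA to DNA barcode read ratio; higher means stronger binding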
T5 chain: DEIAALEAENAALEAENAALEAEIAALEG

P8-AA = target: T6, P8-AA; assay: two-hybrid library CCmax; conditions: mean of both orientations
T6 chain: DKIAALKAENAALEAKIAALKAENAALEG

P3-AA = target: T7, P3-AA; assay: two-hybrid library CCmax; conditions: mean of both orientations
T7 chain: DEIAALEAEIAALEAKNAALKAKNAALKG

P4-AA = target: T8, P4-AA; assay: two-hybrid library CCmax; conditions: mean of both orientations
T8 chain: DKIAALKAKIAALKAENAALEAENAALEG

P9-AA = target: T9, P9-AA; assay: two-hybrid library CCmax; conditions: mean of both orientations
T9 chain: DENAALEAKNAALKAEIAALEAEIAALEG

AP3-AA = target: T10, AP3-AA; assay: two-hybrid library CCmax; conditions: mean of both orientations
T10 chain: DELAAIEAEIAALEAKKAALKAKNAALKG

AP7-AA = target: T11, AP7-AA; assay: two-hybrid library CCmax
T11 chain: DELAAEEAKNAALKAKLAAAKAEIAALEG

AP2-AA = target: T12, AP2-AA; assay: two-hybrid library CCmax
T12 chain: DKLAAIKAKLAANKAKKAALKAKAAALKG

P10-AA = target: T13, P10-AA; assay: two-hybrid library CCmax; conditions: mean of both orientations
T13 chain: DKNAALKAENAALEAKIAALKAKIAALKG

AP6-AA = target: T14, AP6-AA; assay: two-hybrid library CCmax; conditions: mean of both orientations
T14 chain: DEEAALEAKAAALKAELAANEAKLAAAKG

P12-AA = target: T15, P12-AA; assay: two-hybrid library CCmax; conditions: mean of both orientations
T15 chain: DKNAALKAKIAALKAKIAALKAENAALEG

P2-AA = target: T16, P2-AA; assay: two-hybrid library CCmax; conditions: mean of both orientations
T16 chain: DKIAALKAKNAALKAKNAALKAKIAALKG

AP5-AA = target: T17, AP5-AA; assay: two-hybrid library CCmax; conditions: mean of both orientations
T17 chain: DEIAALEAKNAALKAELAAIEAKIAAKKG

APC232-AA = target: T18, APC232-AA; assay: two-hybrid library CCmax; conditions: mean of both orientations
T18 chain: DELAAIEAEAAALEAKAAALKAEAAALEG

APC3645-AA = target: T19, APC3645-AA; assay: two-hybrid library CCmax; conditions: mean of both orientations
T19 chain: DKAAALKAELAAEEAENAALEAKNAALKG

APC1434-AA = target: T20, APC1434-AA; assay: two-hybrid library CCmax; conditions: mean of both orientations
T20 chain: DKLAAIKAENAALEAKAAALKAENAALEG

APC9096-AA = target: T21, APC9096-AA; assay: two-hybrid library CCmax; conditions: mean of both orientations
T21 chain: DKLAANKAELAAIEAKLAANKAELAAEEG

APC9319-AA = target: T22, APC9319-AA; assay: two-hybrid library CCmax; conditions: mean of both orientations
T22 chain: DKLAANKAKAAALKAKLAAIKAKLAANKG

APC4011-AA = target: T23, APC4011-AA; assay: two-hybrid library CCmax; conditions: mean of both orientations
T23 chain: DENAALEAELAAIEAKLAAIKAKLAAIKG

4H733-AA = target: T24, 4H733-AA; assay: two-hybrid library CCmax
T24 chain: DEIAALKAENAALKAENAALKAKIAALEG

APC1015-AA = target: T25, APC1015-AA; assay: two-hybrid library CCmax; conditions: mean of both orientations
T25 chain: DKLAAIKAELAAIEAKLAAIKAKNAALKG

APC4436-AA = target: T26, APC4436-AA; assay: two-hybrid library CCmax; conditions: mean of both orientations
T26 chain: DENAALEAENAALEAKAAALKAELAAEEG

APC2405-AA = target: T27, APC2405-AA; assay: two-hybrid library CCmax; conditions: mean of both orientations
T27 chain: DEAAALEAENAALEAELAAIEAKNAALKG

APC2237-AA = target: T28, APC2237-AA; assay: two-hybrid library CCmax; conditions: mean of both orientations
T28 chain: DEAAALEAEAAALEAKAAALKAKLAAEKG

APC8191-AA = target: T29, APC8191-AA; assay: two-hybrid library CCmax; conditions: mean of both orientations
T29 chain: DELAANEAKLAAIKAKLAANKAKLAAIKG

APC6108-AA = target: T30, APC6108-AA; assay: two-hybrid library CCmax; conditions: mean of both orientations
T30 chain: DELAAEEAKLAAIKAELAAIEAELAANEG

APC7099-AA = target: T31, APC7099-AA; assay: two-hybrid library CCmax; conditions: mean of both orientations
T31 chain: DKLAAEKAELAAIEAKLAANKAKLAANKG

APC5383-AA = target: T32, APC5383-AA; assay: two-hybrid library CCmax; conditions: mean of both orientations
T32 chain: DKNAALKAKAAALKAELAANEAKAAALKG

APC4264-AA = target: T33, APC4264-AA; assay: two-hybrid library CCmax; conditions: mean of both orientations
T33 chain: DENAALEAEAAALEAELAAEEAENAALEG

4H807-AA = target: T34, 4H807-AA; assay: two-hybrid library CCmax; conditions: mean of both orientations
T34 chain: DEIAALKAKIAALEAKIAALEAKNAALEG

APC8910-AA = target: T35, APC8910-AA; assay: two-hybrid library CCmax; conditions: mean of both orientations
T35 chain: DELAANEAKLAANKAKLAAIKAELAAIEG

4H3175-bH = target: T36, 4H3175-bH; assay: two-hybrid library CCNG1
T36 chain: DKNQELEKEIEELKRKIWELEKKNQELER

4H3926-bH = target: T37, 4H3926-bH; assay: two-hybrid library CCNG1
T37 chain: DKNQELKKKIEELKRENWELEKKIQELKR

4H3414-bH = target: T38, 4H3414-bH; assay: two-hybrid library CCNG1
T38 chain: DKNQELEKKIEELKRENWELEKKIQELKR

4H3628-bH = target: T39, 4H3628-bH; assay: two-hybrid library CCNG1
T39 chain: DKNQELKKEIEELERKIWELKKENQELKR

4H570-bH = target: T40, 4H570-bH; assay: two-hybrid library CCNG1
T40 chain: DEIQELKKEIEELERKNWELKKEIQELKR

4H3298-bH = target: T41, 4H3298-bH; assay: two-hybrid library CCNG1
T41 chain: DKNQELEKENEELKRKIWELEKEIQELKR

4H1985-bH = target: T42, 4H1985-bH; assay: two-hybrid library CCNG1
T42 chain: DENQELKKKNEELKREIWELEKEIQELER

4H3858-bH = target: T43, 4H3858-bH; assay: two-hybrid library CCNG1
T43 chain: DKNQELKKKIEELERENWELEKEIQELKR

4H3613-bH = target: T44, 4H3613-bH; assay: two-hybrid library CCNG1
T44 chain: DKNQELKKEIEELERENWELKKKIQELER

4H3974-bH = target: T45, 4H3974-bH; assay: two-hybrid library CCNG1
T45 chain: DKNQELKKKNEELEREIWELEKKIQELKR

4H1899-bH = target: T46, 4H1899-bH; assay: two-hybrid library CCNG1
T46 chain: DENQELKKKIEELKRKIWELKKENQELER

4H3277-bH = target: T47, 4H3277-bH; assay: two-hybrid library CCNG1
T47 chain: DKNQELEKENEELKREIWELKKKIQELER

4H906-bH = target: T48, 4H906-bH; assay: two-hybrid library CCNG1
T48 chain: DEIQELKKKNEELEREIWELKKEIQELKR

4H3462-bH = target: T49, 4H3462-bH; assay: two-hybrid library CCNG1
T49 chain: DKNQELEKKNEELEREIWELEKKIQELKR

4H3628-bN = target: T50, 4H3628-bN; assay: two-hybrid library CCNG1
T50 chain: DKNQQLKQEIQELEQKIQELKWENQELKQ

4H3817-bH = target: T51, 4H3817-bH; assay: two-hybrid library CCNG1
T51 chain: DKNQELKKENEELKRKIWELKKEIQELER

4H3162-bH = target: T52, 4H3162-bH; assay: two-hybrid library CCNG1
T52 chain: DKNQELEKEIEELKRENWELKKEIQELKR

4H626-bH = target: T53, 4H626-bH; assay: two-hybrid library CCNG1
T53 chain: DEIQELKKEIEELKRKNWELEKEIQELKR

4H591-bH = target: T54, 4H591-bH; assay: two-hybrid library CCNG1
T54 chain: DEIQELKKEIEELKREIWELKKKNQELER

4H3497-bH = target: T55, 4H3497-bH; assay: two-hybrid library CCNG1
T55 chain: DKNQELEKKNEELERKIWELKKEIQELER

4H850-bH = target: T56, 4H850-bH; assay: two-hybrid library CCNG1
T56 chain: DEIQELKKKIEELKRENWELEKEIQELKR

- interaction score (P11-AA): -0.526
- interaction score (AP4-AA): -1.62
- interaction score (AP8-AA): -1.71
- interaction score (P7-AA): -1.75
- interaction score (GCN2_T): -1.81
- interaction score (P1-AA): 0.511
- interaction score (P8-AA): -1.86
- interaction score (P3-AA): -1.95
- interaction score (P4-AA): -1.83
- interaction score (P9-AA): -1.65
- interaction score (AP3-AA): -2.09
- interaction score (AP7-AA): -1.6
- interaction score (AP2-AA): -2.11
- interaction score (P10-AA): -1.76
- interaction score (AP6-AA): -1.74
- interaction score (P12-AA): -1.59
- interaction score (P2-AA): -1.94
- interaction score (AP5-AA): -1.24
Binder: DKLAAIKAKLAANKAKKAALKAKAAALKG [AP2-AA]

- interaction score (APC232-AA): -1.82
- interaction score (APC3645-AA): -1.25
- interaction score (APC1434-AA): -1.75
- interaction score (APC9096-AA): -1.46
- interaction score (APC9319-AA): -2.02
- interaction score (APC4011-AA): -1.54
- interaction score (4H733-AA): 2.16
- interaction score (APC1015-AA): -1.46
- interaction score (APC4436-AA): -1.66
- interaction score (APC2405-AA): -1.28
- interaction score (APC2237-AA): -1.41
- interaction score (APC8191-AA): -1.19
- interaction score (APC6108-AA): -1.39
- interaction score (APC7099-AA): -1.67
- interaction score (APC5383-AA): -2.26
- interaction score (APC4264-AA): -1.83
- interaction score (4H807-AA): -1.53
- interaction score (APC8910-AA): -1.37
Binder: DEIAALKAENAALKAENAALKAKIAALEG [4H733-AA]

- interaction score (4H3175-bH): 0.0491
- interaction score (4H3926-bH): -0.236
- interaction score (4H3414-bH): -0.169
- interaction score (4H3628-bH): 1.19
- interaction score (4H570-bH): -1.69
- interaction score (4H3298-bH): -0.203
- interaction score (4H1985-bH): 1.05
- interaction score (4H3858-bH): -0.0187
- interaction score (4H3613-bH): -0.355
- interaction score (4H3974-bH): 0.298
- interaction score (4H1899-bH): 0.337
- interaction score (4H3277-bH): -0.392
- interaction score (4H906-bH): -0.666
- interaction score (4H3462-bH): 0.0285
- interaction score (4H3628-bN): 0.735
- interaction score (4H3817-bH): 0.356
- interaction score (4H3162-bH): -0.289
- interaction score (4H626-bH): -1.98
- interaction score (4H591-bH): -0.968
- interaction score (4H3497-bH): 0.766
- interaction score (4H850-bH): -0.44
Binder: DENQELKKKIEELKRKIWELKKENQELER [4H1899-bH]
